# Target: acetylcholine receptor
# Experiment: SPR, AchR immobilized on chip
row,Binding affinity (RU),Binder
1,194 RU,RWRYKR [6mer-2-136]
2,167 RU,RSYSR [5mer-311]
3,184 RU,RRGVRR [6mer-1-210]
4,179 RU,RRQRR [5mer-73]

# Target: acetylcholine receptor
# Experiment: SPR, AchR on chip, peptide 10 uM
row,Binding affinity (RU),Binder
1,167 RU,RSYSR [5mer-311]

# Target: acetylcholine receptor
# Experiment: SPR, receptor immobilized, peptide 10 uM
row,Binding affinity,Binder
1,194 RU,RWRYKR [6mer-2-136]

# Target: acetylcholine receptor
# Experiment: SPR, AchR immobilised on chip, peptide 10 uM
row,Binding affinity (RU),Binder
1,184 RU,RRGVRR [6mer-1-210]

# Target: acetylcholine receptor
# Experiment: SPR, peptide at 10 µM on acetylcholine receptor
row,Binding affinity (RU),Binder
1,179 RU,RRQRR [5mer-73]

# Target: acetylcholine receptor
# Experiment: SPR, AchR immobilized on chip, peptide at 10 uM
row,Binding affinity,Binder
1,131 RU,RRRLKK [6mer-2-1]

# Target: acetylcholine receptor
# Experiment: SPR, peptide at 10 uM over immobilized acetylcholine receptor
row,Binder,Binding affinity (RU)
1,KLYTRK [6mer-2-75],133 RU
2,RRRCRR [6mer-2-100],142 RU
3,KQRYKK [6mer-2-84],139 RU
4,KQFRRK [6mer-2-86],126 RU
5,RLICRK [6mer-2-101],154 RU
6,KSRSKK [6mer-2-89],141 RU
7,KVVCKR [6mer-2-92],131 RU
8,KSQYKR [6mer-2-85],137 RU
9,RVVYKK [6mer-2-108],153 RU
10,KRYLKR [6mer-2-78],135 RU
11,RLYQRK [6mer-2-94],126 RU
12,RGFTRR [6mer-2-105],151 RU
13,RRATER [6mer-1-1198],28 RU
14,RQLSKR [6mer-2-79],135 RU
15,KQQTRR [6mer-2-77],123 RU
16,KKTNKR [6mer-1-1199],39 RU
17,RWIYKR [6mer-2-74],136 RU
18,KWFLRK [6mer-2-69],139 RU
19,RRVSRR [6mer-2-81],121 RU
20,KWIYKR [6mer-2-91],121 RU
21,RRQSRK [6mer-2-76],142 RU
22,RGVYRK [6mer-2-107],144 RU

row,Binder,Binding affinity (RU)
1,KWRQRK [6mer-2-96],154 RU
2,RRIYRK [6mer-2-95],142 RU
3,RWVQRK [6mer-2-106],123 RU
4,RVVTKK [6mer-2-103],136 RU
5,RGVQKK [6mer-2-82],124 RU
6,KRIQKK [6mer-2-72],144 RU
7,RQFYRK [6mer-2-97],154 RU
8,RKACEK [6mer-1-1200],21 RU
9,RGVCRK [6mer-2-104],145 RU
10,RWQTRR [6mer-2-93],133 RU
11,RRVYRK [6mer-2-109],144 RU
12,KQVYKR [6mer-2-71],141 RU
13,RRQQRR [6mer-2-98],148 RU
14,KVYQKK [6mer-2-102],139 RU
15,RQRSRR [6mer-2-99],151 RU
16,KSFQRR [6mer-2-88],141 RU
17,RRLTKR [6mer-2-87],142 RU
18,RRQYKR [6mer-2-80],148 RU
19,RLYTKR [6mer-2-73],139 RU
20,KQYQRR [6mer-2-83],135 RU
21,KGRTKR [6mer-2-90],133 RU
22,KRLLRK [6mer-2-70],126 RU

# Further lines, results first:
row,Binding affinity (RU),Binder
1,148 RU,KWLYRR [6mer-2-126]
2,126 RU,KLQRKK [6mer-2-116]
3,122 RU,RGVCRR [6mer-2-130]
4,142 RU,KVQLRR [6mer-2-125]
5,137 RU,KRVYRK [6mer-2-121]
6,142 RU,RLQQKR [6mer-2-112]
7,148 RU,KQQTKR [6mer-2-131]
8,139 RU,RSISKK [6mer-2-119]
9,139 RU,KLYCKK [6mer-2-132]
10,136 RU,RLYLRK [6mer-2-127]
11,145 RU,KRYSRK [6mer-2-113]
12,126 RU,KWQLKR [6mer-2-124]
13,148 RU,KRYTRK [6mer-2-117]
14,125 RU,RVITKK [6mer-2-122]
15,123 RU,KLIRRK [6mer-2-111]
16,124 RU,RWFYKK [6mer-2-135]
17,135 RU,KWFSRR [6mer-2-118]
18,147 RU,KSYYRR [6mer-2-128]
19,146 RU,RQFTKR [6mer-2-123]
20,144 RU,KWQYRK [6mer-2-115]
21,146 RU,RRQCRK [6mer-2-120]
22,145 RU,KRRLKK [6mer-2-133]
23,153 RU,KSQLKK [6mer-2-110]
24,148 RU,RLFQRK [6mer-2-134]
25,139 RU,KSVLRK [6mer-2-129]
26,121 RU,KLQYRK [6mer-2-114]
